Reference: patent US20030186223A1, “Modular recombinatorial display libraries” (Dyax Corp., priority 2002, published 2003)
Positions of bridges follow the written chain, without caps; N, C: chain ends. No end group written: not given here.

What was measured:
KDR-Fc fusion protein = biological target: T1, KDR-Fc fusion protein (Homo sapiens, UniProt P35968); assay: BIAcore surface plasmon resonance binding of synthetic polypeptides to immobilized KDR-Fc; conditions: BIAcore SPR; KDR-Fc fusion immobilized on chip; synthetic polypeptide with acetyl-Ser-Gly- and -Gly-Ser flanks
T1 construct: purchased R & D Systems (Minneapolis, Minn.) 357-KD-050
T1 sequence (P35968 with tags, fused parts or gaps limits assumed): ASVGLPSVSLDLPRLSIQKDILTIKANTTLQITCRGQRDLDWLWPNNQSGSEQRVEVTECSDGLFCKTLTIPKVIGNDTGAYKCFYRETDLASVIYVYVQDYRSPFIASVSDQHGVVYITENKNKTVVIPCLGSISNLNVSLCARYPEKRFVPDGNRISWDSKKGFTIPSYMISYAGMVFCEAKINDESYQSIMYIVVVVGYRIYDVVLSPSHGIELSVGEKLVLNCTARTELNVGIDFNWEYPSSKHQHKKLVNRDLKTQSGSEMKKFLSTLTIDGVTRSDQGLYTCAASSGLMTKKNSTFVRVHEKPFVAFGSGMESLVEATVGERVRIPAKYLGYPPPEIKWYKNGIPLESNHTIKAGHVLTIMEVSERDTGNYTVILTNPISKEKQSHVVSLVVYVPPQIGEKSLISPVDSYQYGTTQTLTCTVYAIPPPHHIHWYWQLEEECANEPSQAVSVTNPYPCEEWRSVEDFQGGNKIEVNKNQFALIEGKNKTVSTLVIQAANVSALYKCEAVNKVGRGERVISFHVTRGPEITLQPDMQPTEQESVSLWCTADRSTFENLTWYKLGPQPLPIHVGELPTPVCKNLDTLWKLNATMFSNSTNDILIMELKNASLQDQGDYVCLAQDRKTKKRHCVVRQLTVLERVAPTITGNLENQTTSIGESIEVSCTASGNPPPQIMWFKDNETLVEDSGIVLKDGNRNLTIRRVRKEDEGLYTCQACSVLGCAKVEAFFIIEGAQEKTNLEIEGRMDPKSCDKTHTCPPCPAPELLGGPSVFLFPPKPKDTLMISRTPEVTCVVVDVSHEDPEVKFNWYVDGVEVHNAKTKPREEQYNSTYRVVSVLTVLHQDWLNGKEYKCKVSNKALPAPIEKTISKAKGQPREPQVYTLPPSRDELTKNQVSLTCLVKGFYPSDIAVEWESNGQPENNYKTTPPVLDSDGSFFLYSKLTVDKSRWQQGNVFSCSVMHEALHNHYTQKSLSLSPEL
Protocol: Binding affinity of selected peptides from the various rounds of selection was tested using a BIAcore surface plasmon resonance spectrophotometer. Polypeptides selected from Tables 1, 2, and 3 were synthesized by solid phase synthesis using the sequence as shown in the tables above and an N-terminal flanking peptide, acetyl-Ser-Gly-, and a C-terminal flanking peptide, -Gly-Ser. A KDR-Fc fusion protein target was immobilized on a BIAcore chip, and the synthetic polypeptides were flowed over the chip to measure the KD of the polypeptides with respect to the KDR target.

[1] = biological target: T2, KDR-Fc fusion (chimeric fusion of Ig Fc region with human KDR, R & D Systems #357-KD-050) (human, UniProt P35968 20-764); assay: phage display selection on KDR-Fc beads and phage ELISA screen on KDR-Fc
T2 construct: Bought carrier-free from R & D Systems; also called KDR-Fc fusion protein target; KDR target; not shown: Ig Fc region
T2 sequence (P35968 20-764, change not shown): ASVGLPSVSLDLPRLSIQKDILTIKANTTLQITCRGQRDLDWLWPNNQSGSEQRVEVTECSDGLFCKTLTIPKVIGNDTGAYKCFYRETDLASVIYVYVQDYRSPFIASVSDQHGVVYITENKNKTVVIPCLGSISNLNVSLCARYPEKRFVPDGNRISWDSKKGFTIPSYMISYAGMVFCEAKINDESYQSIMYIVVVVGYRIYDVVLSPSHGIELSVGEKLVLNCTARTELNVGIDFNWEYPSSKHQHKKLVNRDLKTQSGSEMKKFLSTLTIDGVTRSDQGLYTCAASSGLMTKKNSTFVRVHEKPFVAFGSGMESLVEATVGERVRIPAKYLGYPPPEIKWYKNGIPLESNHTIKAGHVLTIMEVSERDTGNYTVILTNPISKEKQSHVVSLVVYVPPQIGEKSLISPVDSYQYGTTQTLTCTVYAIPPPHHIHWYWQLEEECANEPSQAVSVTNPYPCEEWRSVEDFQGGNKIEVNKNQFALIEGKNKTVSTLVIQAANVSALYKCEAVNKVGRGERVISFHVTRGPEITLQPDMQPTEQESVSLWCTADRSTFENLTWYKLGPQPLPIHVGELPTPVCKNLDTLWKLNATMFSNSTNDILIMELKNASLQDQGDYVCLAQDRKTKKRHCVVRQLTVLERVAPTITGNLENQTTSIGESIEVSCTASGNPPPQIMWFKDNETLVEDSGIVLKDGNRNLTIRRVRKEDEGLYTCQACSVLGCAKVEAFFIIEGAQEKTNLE
Protocol: The phage library was incubated with 50 μl of Trail R4 Fc fusion beads on a Labquake shaker for 1 hour at room temperature (RT). After incubation, the phage supernatant was removed and incubated with another 50 μl of Trail R4 beads. This was repeated for a total of 5 rounds of depletion, to remove non-specific Fc fusion and bead binding phage from the library. The depleted library was added to 100 μl of KDR-Fc beads and allowed to incubate on a LabQuake shaker for 1 hour at RT. Beads were then washed as rapidly as possible with 5×1 ml PBSTH using a magnetic stand (Promega) to separate the beads from the wash buffer. Phage still bound to beads after the washing were competition-eluted using soluble VEGF₁₆₅ (#100-20) purchased in carrier-free form from Peprotech (Rocky Hill, N.J.) as follows: The beads were incubated with 250 μl of VEGF (50 μg/ml,˜1 μM) overnight at room temperature (RT) on a LabQuake shaker. […]
Once the plates were prepared, each overnight phage culture was diluted 1:1 (or to 10¹⁰ pfu if using purified phage stock) with PBS, 0.05% Tween-20, 1% BSA. […] Each plate was washed 7 times with PBST (PBS, 0.05% Tween-20), then the plates were developed with HRP substrate (˜10 minutes) and the absorbance signal (630 nm) detected with a plate reader.

[2] = biological target: T2, KDR-Fc fusion (chimeric fusion of Ig Fc …); assay: secondary library, round 1: phage display selection against KDR-Fc as before
[3] = biological target: T2, KDR-Fc fusion (chimeric fusion of Ig Fc …); assay: BIAcore SPR, KDR-Fc immobilized on chip, synthetic peptide flowed over

Molecule | binding to KDR target (qualitative) (KDR-Fc fusion protein) | binding result [2] | also measured
SNKCDHYQSGPHGKICVNY (Selected library sequence) [SEQ ID NO: 23] | no binding | – | –
SNKCDHYQSGPYGAVCLHY (Selected library sequence) [SEQ ID NO: 7] | no binding | – | –
WQECTKVLSGPGQFECEYM (Selected library sequence) [SEQ ID NO: 24] | no binding | – | –
WQECTKVLSGPGQFLCSYG (Selected library sequence) [SEQ ID NO: 6] | no binding | – | –
RLDCDMVFSGPHGKICVNY (peptide, not shown: large carriers; small tags and cut ends, disulfide 4-16 (inferred); also: displayed on M13 phage fused to protein III via linkers) [SEQ ID NO 10 phage isolate] | – | – | binding result [1]: binds
AHQCHHWTSGPYGEVCFNY (peptide, not shown: large carriers; small tags and cut ends, disulfide 4-16 (inferred); also: displayed on M13 phage fused to protein III via linkers) [SEQ ID NO 12 phage isolate] | – | – | binding result [1]: binds
SNKCDHYQSGPFGDICVSY (peptide, not shown: large carriers; small tags and cut ends, disulfide 4-16 (inferred); also: displayed on M13 phage fused to protein III via linkers) [SEQ ID NO 43 phage isolate] | – | binds | –
SNKCDHYQSGPFGDVCVSY (peptide, not shown: large carriers; small tags and cut ends, disulfide 4-16 (inferred); also: displayed on M13 phage fused to protein III via linkers) [SEQ ID NO 42 phage isolate] | – | binds | –
RTTCHHQISGPFGPVCVNY (peptide, not shown: large carriers; small tags and cut ends, disulfide 4-16 (inferred); also: displayed on M13 phage fused to protein III via linkers) [SEQ ID NO 44 phage isolate] | – | binds | –
RTTCHHQISGPYGDICVKY (peptide, not shown: large carriers; small tags and cut ends, disulfide 4-16 (inferred); also: displayed on M13 phage fused to protein III via linkers) [SEQ ID NO 45 phage isolate] | – | binds | –
Ac-SGRLDCDKVFSGPYGKVCVSYGS (cysteine pairing not given here) [SEQ ID NO 49 synthetic polypeptide] | – | – | Kd [3]: 1000 nM
Ac-SGRTTCHHQISGPHGKICVNYGS (cysteine pairing not given here) [SEQ ID NO 22 synthetic polypeptide] | – | – | Kd [3]: 650 nM
